Source: paper PMC4519987

Tests used:
[1] = biological target: T1, SOX17-Flag (rSOX17-Flag) (UniProt Q9H6I2 1-414); assay: competition; 300-fold excess vs Lef1_Biot; EMSA: 100 mM HEPES pH 8.0, 50 mM KCl, 500 uM DTT, 50 uM EDTA, 1 mM MgCl2, 5% glycerol, 0.02 U poly(dG-dC), 0.3 pmol biotin probe, 300-fold excess competitor; 7%
[2] = biological target: T1, SOX17-Flag (rSOX17-Flag); assay: EMSA; EMSA: 100 mM HEPES pH 8.0, 50 mM KCl, 500 uM DTT, 50 uM EDTA, 1 mM MgCl2, 5% glycerol, 0.02 U poly(dG-dC), 0.3 pmol biotin probe, 300-fold excess competitor; 7%

T1 sequence (Q9H6I2 whole entry): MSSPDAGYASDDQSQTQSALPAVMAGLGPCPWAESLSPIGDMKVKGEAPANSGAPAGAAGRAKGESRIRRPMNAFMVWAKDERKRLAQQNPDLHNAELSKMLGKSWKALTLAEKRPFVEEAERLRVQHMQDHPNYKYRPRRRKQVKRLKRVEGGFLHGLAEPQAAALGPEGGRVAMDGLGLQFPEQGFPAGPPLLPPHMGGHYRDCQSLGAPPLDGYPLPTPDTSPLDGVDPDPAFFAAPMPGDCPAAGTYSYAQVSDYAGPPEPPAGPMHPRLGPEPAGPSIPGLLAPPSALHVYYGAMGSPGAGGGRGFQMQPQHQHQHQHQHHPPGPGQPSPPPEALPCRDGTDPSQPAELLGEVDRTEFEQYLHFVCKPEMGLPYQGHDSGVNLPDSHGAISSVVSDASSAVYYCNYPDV

B1: Lef1_Δ_s1 (dsDNA)
DNA 1: CATTTCTTTATGTCAGGGTGGTACTGTTCTG
DNA 2: CAGAACAGTACCACCCTGACATAAAGAAATG
B1: no binding [1].

B2: Lef1_Biot (dsDNA)
DNA 1: CATTTCTTTATGTCCTTTGTTTACTGTTCTG
DNA 2: CAGAACAGTAAACAAAGGACATAAAGAAATG
B2: binds [2].

B3: Lef1_s1 (dsDNA)
DNA 1: CATTTCTTTATGTCCTTTGTTTACTGTTCTG
DNA 2: CAGAACAGTAAACAAAGGACATAAAGAAATG
B3: binds [1].
